Measured values published in the domain aggregation screens of Martell et al. (2025).

Assay: soluble fraction after stress (log2 fold change); higher = more stays soluble; pooled small domains, quantitative proteomics
Conditions: stress: 50 degC
Procedure, shortened: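 After stress at 50°C, the amount of each protein still soluble was measured. This was done on pooled custom libraries of small protein domains, using high-throughput quantitative proteomics. The figure given is a base-two log fold change and stands for aggregation propensity, with higher values meaning more protein stays in solution.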

| Sequence | soluble fraction (log2) |
| --- | --- |
| HMPSPEMLKETEKRKAEEIYRSQINLFIDDYHRLKGQYPLLEDIIDNKKDSIPIEILREISISILKNYFE | -0.242 |
| HMPSPEVELLEDLLSKTDEAEVEAAFHENQALVNDEFKAMLGSLIQELSKTQEADPEIIARIRFIQKLT | 0.16 |
| HMPSREDFAYDSIKEAILSGELLPNQKISLSDLANKLGISIIPVNSAVGRLVAEGLVRQDPHHSPYVV | 0.345 |
| HMPSRPIQVASFSKEDNAKRAAEALAKIGVTATPQKSEKAGKAVWGVVVTGDDAMLQKIKDAGFADAYFL | 0.0921 |
| HMPSTKDGIKEFLSSGAMKGIGRKTASAIVSRFGIDTLKIIEQEPQRLTEVSGIGKKTAQRIAEAFGKH | -0.103 |
| HMPSTVRVPDVAETSLSEAKKTIEESGLEVGAIHKVNNDTVKKNHVIKTSPTIGSAKKEGSAIDIYVSKG | -0.0128 |
| HMPSTVSVPDVAGSSLSEAKTTIKSSGLKVGTVHKVSSDTVESGYVIKTSPTAGSSKKEGSSIDIYVSKG | 0.432 |
| HMPTANFPAMAEALKKQYGPPTGEEETSWTHRLGGVFDIKIQSWNTPQGEMVLRSRGAAMDAGML | 0.439 |
| HMPTEPTARELEVTTLLAQGLSNREIAGALFISEHTVRNHLGHVFSKLGVSSRTQAVVRAGQLGWLR | -2.14 |
| HMPTKSDLLQWIKDRASKMGGAFTNSGAYALADAGVDGPRALSSEINKLLTYVNWERSVEADDVIRL | -0.13 |
| HMPTLTPFDVARIENAINPRLNLETAAKLKPWIAAGYTAQETADGTGFSPDTVKKYAAIFRK | 0.103 |
| HMPTQTEELRRRIVADVNAGEPGAKLGSERELAERYGTSRSSLRQVLAALQEAGLIDRVIGRSGGIFISH | -0.0372 |
| HMPTSILEKILNSAAEQFTRYGFKTITMDDIARHAGVSKKTLYQHFETKLDIIVAAVTHFHTMKF | -0.718 |
| HMPTYEEAKTYLKAAFEHIVAAGRDVGELVEFAFAKSGDAVAPYLRRFLSDVHEGRITIQGLTESAKLAV | 0.206 |
| HMPVEQVWHIAEAGKTKGPFSRASMGRMSADGALTRDTLVWTAGQDGWKKAADVTALATLFT | -0.0223 |
| HMPVFYATNRQKTTIHNLKRKKGLDDDAYRATIYSFTHGRTDSSKYMYKYEAAELIQKWLDPE | -1.7 |
| HMPVGVPGVVYNTDSLNVRKGAGTNYDIVSKLKRGSVIEVLEQTAVDGTVWGRIAEGWVNMEYVSL | -0.43 |
| HMPVSDLQSALRNTLSKGDATDPAFRQRVYRAAMDALERATGSESDPQRRSEQKQRLIAVIRDMEASYRR | 0.277 |
| HMPVTKSARQSRIGELIAREPVRSQSELAARLADDGIVVSQGTLSKDLLELGAVRVRTSSGELAYALL | -0.18 |
| HMPWLIAVTVDGVNLPRFLRRAGEMGLLLTGVRIRGKHLSAFAREDDVPPLRMMAENGGWRFSVGN | -1.61 |
| HMPYEHQRAVGALIRRLREQQGWSQRALADWVHMDQSAVSRVETGQRSVTAEELGRFADALHVSTDALVR | -0.291 |
| HMPYFLKQSNTRSKGLYLQIYHSFYVPGKGSRNKSYKAIGYVSELIKNGIEDPITYAKNLVDELNNNSSTP | -3.75 |
| HMPYPSPADLARMDELIAWVKDEGRLPRDRSGQRSERSMARWLAARRREAAEGTLDPAYRDGLAQVPGWR | -0.368 |
| HMPYSAAVTFLDDAKQPMVNYNYRLIAENGIEVSGITDEFGKTQPIQTDQREKVDLYIADLPN | 0.495 |
| HMQAALEVQASAGVLAPVPPDQRQALLDTLAQDPRPGYQHEAGRVYGFPFGGFEVRFTVSDGLLTVLSAYK | -1.7 |
| HMQAATQVNIVGLFSNKAVVIINGGKPKTLSVGQTSEGVKLLAADSQTATLQIEGKTQQLGMGQAASVGG | 0.134 |
| HMQAESLTVVRSAELKADRFLDAATLQTLQTGQVVESLRTESGWVQVRIAGQQGWVRAMNVKGA | -0.459 |
| HMQAITVNNEGKIFLNTIPVTLEELSSKLESLKSSTPEFPVVIRGDSGSQYQGIMDVLNVVGRLGITQIGL | -0.246 |
| HMQAKDVEVPDYVGKSFVSIKENNPNDFKFEVKSEYDESKEMGVILDQEPKGGSMKVKSGSTITVTV | -0.0106 |
| HMQASPADLLSDRELEVFQLTGEWKTTRQIAQELHLSVKTIEYYREQIKRKLNLKSAAELTQHATAWVQRG | -0.361 |
